Test results reported in the supplement of paper PMC6755084.

B1: F1*; the commonest letter at each place (parent)
chain: GAGACCGCAACTGAAAAGTTGTTATCACTTGTCGTAAGACACTTTGGATGGGTTGAAGTTCTGCACGTAGAAGCAAAAGGC

Variants of: B1
Assay: fraction ligated after 30 min (ligated reads / total reads); higher = more ligase activity
Settings: with F1*sub RNA substrate (template-directed ligation), 42 °C
Procedure, shortened: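 Ribozyme variants were transcribed with T7 from PCR-amplified oligo-pool templates and gel-purified. Ligated and unligated bands, separated on gel, were reverse transcribed with barcoded primers and sequenced on a MiSeq, with core bases filtered at quality ≥20. Fraction ligated per variant was computed as ligated reads divided by total reads.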

Row | Variant | fraction ligated
1 | T29A T35C | 0.828
2 | T35G A41C | 0.808
3 | A27T A56C | 0.787
4 | A37T G46A | 0.807
5 | G31T G55T | 0.759
6 | G34C T44A | 0.816
7 | T35A G47A | 0.811
8 | T29C A41C | 0.768
9 | C33G G55A | 0.839
10 | T23G T49C | 0.748
11 | A39G G50T | 0.789
12 | A36C G38C | 0.838
13 | G31T A56T | 0.755
14 | C33T C40T | 0.859
15 | A24T G47A | 0.797
16 | A37G T49A | 0.796
17 | A39T G47A | 0.759
18 | T43G G55T | 0.765
19 | T43G G55A | 0.801
20 | T25G A57G | 0.703
21 | A41C T45C | 0.328
22 | C26T T32C | 0.792
23 | C28T A57T | 0.817
24 | T23G A48T | 0.781

Row | Variant | fraction ligated
25 | A27T C33A | 0.84
26 | T29C C33G | 0.827
27 | T29C C33A | 0.824
28 | G38A A41G | 0.765
29 | T44A G46C | 0.793
30 | T25C G31C | 0.53
31 | T25C T29A | 0.753
32 | C28G A36C | 0.759
33 | C33G G34C | 0.843
34 | A36T T43A | 0.841
35 | A37C G55C | 0.826
36 | C26G G34A | 0.357
37 | C40G | 0.816
38 | A24T T35C | 0.788
39 | T23G C26G | 0.74
40 | T44C G46C | 0.8
41 | T23A A24C | 0.782
42 | T45C A57T | 0.777
43 | G34C G46T | 0.762
44 | A27C C33G | 0.815
45 | T32C T45G | 0.109
46 | C42T | 0.856
47 | A39G A41T | 0.796
48 | A36C A37C | 0.821

Row | Variant | fraction ligated
49 | T25G A48T | 0.818
50 | C42A G50A | 0.345
51 | G31C G34C | 0.804
52 | T45G A57G | 0.769
53 | C28G | 0.797
54 | C28T A56T | 0.731
55 | G31A G34A | 0.804
56 | A37T T43A | 0.848
57 | T25C G46A | 0.71
58 | G46T T49G | 0.277
59 | T32A C40G | 0.834
60 | C26T T29A | 0.845
61 | G31T G50T | 0.103
62 | C40T A57T | 0.798
63 | A27G A36G | 0.805
64 | T44G G50C | 0.0717
65 | C33G G38A | 0.847
66 | T35G A39C | 0.816
67 | G34A T43G | 0.799
68 | T25G C28T | 0.675
69 | G34C A37G | 0.845
70 | A36G T44A | 0.848
71 | T30G G50T | 0.712
72 | C26G T35C | 0.772

Row | Variant | fraction ligated
73 | A37G G46A | 0.818
74 | A37G G46T | 0.806
75 | C33T G55A | 0.859
76 | C33A C42T | 0.872
77 | T30C T43G | 0.768
78 | T30C T43A | 0.809
79 | G50T A57G | 0.526
80 | T25C T32C | 0.762
81 | T23G T44A | 0.842
82 | A27T C40A | 0.856
83 | T35G T49G | 0.778
84 | A37C A57G | 0.838
85 | T30G T44G | 0.798
86 | A41T T44G | 0.8
87 | T43A A57T | 0.833
88 | G31T A57G | 0.819
89 | A24C G50A | 0.431
90 | T23A G46T | 0.479
91 | T23A A27C | 0.82
92 | T25C A36T | 0.793
93 | G31T A39T | 0.792
94 | A37G A48G | 0.795
95 | A24G T35G | 0.774
96 | A24C T25C | 0.793

Row | Variant | fraction ligated
97 | T29C | 0.824
98 | T35C G50T | 0.753
99 | C33T A36G | 0.854
100 | T25C T35C | 0.771
101 | T43A T44C | 0.836
102 | A39C | 0.832
103 | A36T C40G | 0.824
104 | T29A A37G | 0.839
105 | C33A G55T | 0.809
106 | T35C G55T | 0.804
107 | A36T G38C | 0.833
108 | A36T G38A | 0.849
109 | A27T A37C | 0.818
110 | T25C C33T | 0.786
111 | A48C A56C | 0.185
112 | C42T A57T | 0.847
113 | C28T G34C | 0.79
114 | T30A A37T | 0.832
115 | A24G C28T | 0.743
116 | G34C T45G | 0.0478
117 | A27C G31C | 0.835
118 | C26T A48T | 0.0105
119 | T35C A57C | 0.813
120 | C28G A57G | 0.791

Row | Variant | fraction ligated
121 | C33T G50C | 0.324
122 | T29C G50C | 0.112
123 | A27G T43C | 0.806
124 | A37C A41T | 0.816
125 | G31T T43C | 0.78
126 | C28A T43A | 0.799
127 | C33A C40A | 0.853
128 | C33A C40G | 0.849
129 | C33A T35A | 0.879
130 | C33A T45C | 0.53
131 | G31A A39G | 0.795
132 | C33T A56G | 0.797
133 | T23A C40T | 0.833
134 | C42T G46A | 0.835
135 | A24C A27C | 0.557
136 | T30C G55T | 0.757
137 | T23C G46A | 0.8
138 | G31C G46T | 0.784
139 | C42T T49C | 0.774
140 | C26T A36C | 0.788
141 | C42T G47A | 0.823
142 | A41T G47C | 0.211
143 | C40A A41C | 0.811
144 | G34T T45C | 0.757

Row | Variant | fraction ligated
145 | T25G A36T | 0.795
146 | G47A A48G | 0.61
147 | A27C A39C | 0.785
148 | A37C G46T | 0.785
149 | A36T A39G | 0.842
150 | G31C T49G | 0.0675
151 | A24G G47A | 0.684
152 | A24G G31T | 0.331
153 | A27G A41C | 0.789
154 | A24T C42A | 0.743
155 | C28G A48G | 0.751
156 | G31A G55A | 0.823
157 | A24G C33T | 0.832
158 | A24G C33A | 0.746
159 | T29A A39T | 0.831
160 | T29A A39G | 0.845
161 | A37T G55C | 0.8
162 | T44C G47T | 0.152
163 | C42A A57T | 0.848
164 | C42A A57G | 0.794
165 | C33A G34A | 0.834
166 | T35G A56C | 0.802
167 | G34A G47C | 0.239
